This note sets out measurements from publication PMC10065799, “High-throughput profiling of sequence recognition by tyrosine kinases and SH2 domains using bacterial peptide display” (eLife, 2023).

The target of the experiment is human c-Src SH2 domain (residues 143-250) (human, UniProt P12931-1 143-250, biotin on the Avi tag (co-expression with the biotin ligase BirA)). As to the kind of experiment: fluorescence polarisation; competition: unlabeled phosphopeptide serially diluted against 30 nM fluorescent peptide and 240 nM (1.5 x KD) c-Src SH2; same buffer; 25 °C; cubic binding equation. The conditions noted are these: both partners purified. For orientation: Polarisation of emitted light reports the rotation of a fluorescent probe.

Square brackets hold non-standard residues; d marks the D form. pY = N[C@@H](Cc1ccc(OP(=O)(O)O)cc1)C(=O)O

B1: CLIP2_Y972 phosphopeptide Ac-QSDQRR(pY)SLIDRG-NH2 (peptide)
peptide: Ac-QSDQRR[pY]SLIDRG-NH2
SMILES: CC[C@H](C)[C@H](NC(=O)[C@H](CC(C)C)NC(=O)[C@H](CO)NC(=O)[C@H](Cc1ccc(OP(=O)(O)O)cc1)NC(=O)[C@H](CCCNC(=N)N)NC(=O)[C@H](CCCNC(=N)N)NC(=O)[C@H](CCC(N)=O)NC(=O)[C@H](CC(=O)O)NC(=O)[C@H](CO)NC(=O)[C@H](CCC(N)=O)NC(C)=O)C(=O)N[C@@H](CC(=O)O)C(=O)N[C@@H](CCCNC(=N)N)C(=O)NCC(N)=O
notes: source: synthetic peptide (synthesized in-house, RP-HPLC purified)
For B1, the binding result is listed as “binds”.

B2: CLIP2_Y972_R977P phosphopeptide Ac-QSDQRR(pY)SLIDPG-NH2 (peptide)
peptide: Ac-QSDQRR[pY]SLIDPG-NH2
SMILES: CC[C@H](C)[C@H](NC(=O)[C@H](CC(C)C)NC(=O)[C@H](CO)NC(=O)[C@H](Cc1ccc(OP(=O)(O)O)cc1)NC(=O)[C@H](CCCNC(=N)N)NC(=O)[C@H](CCCNC(=N)N)NC(=O)[C@H](CCC(N)=O)NC(=O)[C@H](CC(=O)O)NC(=O)[C@H](CO)NC(=O)[C@H](CCC(N)=O)NC(C)=O)C(=O)N[C@@H](CC(=O)O)C(=O)N1CCC[C@H]1C(=O)NCC(N)=O
notes: as for B1
As for B2, the binding result was “binds”.
